Test results taken from PMC2852523 (The Journal of Membrane Biology, 2010).

T1: Potassium channel KcsA, wild-type (Streptomyces lividans), P0A334
T1 chain: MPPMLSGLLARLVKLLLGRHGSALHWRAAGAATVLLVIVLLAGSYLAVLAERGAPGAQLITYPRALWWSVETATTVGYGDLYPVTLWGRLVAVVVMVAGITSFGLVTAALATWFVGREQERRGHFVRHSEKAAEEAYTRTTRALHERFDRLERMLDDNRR

B1: ΔN-KcsA (KcsA lacking the first 18 amino acids, Δ1–18) (domain or fragment, Streptomyces lividans, UniProt P0A334 19-160, looked up)
chain: RHGSALHWRAAGAATVLLVIVLLAGSYLAVLAERGAPGAQLITYPRALWWSVETATTVGYGDLYPVTLWGRLVAVVVMVAGITSFGLVTAALATWFVGREQERRGHFVRHSEKAAEEAYTRTTRALHERFDRLERMLDDNRR
B2: Potassium channel KcsA, wild-type, P0A334 1-160 (natural protein)
chain: T1 chain

Tests used:
[1] = target: the molecule itself; assay: SDS-PAGE
[2] = target: T1, Potassium channel KcsA, wild-type …; assay: SDS-PAGE; conditions: remark: other sources report otherwise

| Binder | stoichiometry N [1] | stoichiometry N [2] |
| --- | --- | --- |
| B1 | 4 |  |
| B2 |  | 4 |
